Experimental data taken from article PMC6640723 (2019).

Key:
[1] = target: recombinant gp41 (ARP680) (HIV-1); assay: ELISA
[2] = target: gp140UG37 (ARP698, Polymun) (HIV-1 strain UG037); assay: ELISA

B1: VHH 2E7 (VHH)
VHH: DVQLQESGGGLVQPGGSLRLSCAASGNIVSIDAAGWFRQAPGKQREPVATILTGGATNYADSVKGRFTISRDNAKNTVYLQMNSLKPEDTAVYYCYAPMIYYGGRYSDYWGQGTQVTVS
[1]
  IC50: 3.2 nM
[2]
  IC50: 0.9 nM
